Measurements reported in patent US10183062B2, “Treatment for cancer” (The University of Nottingham, priority 2013, dated 2019).
Entries after “also recorded” stand apart in the source; their conditions may differ.

Tests used:
[1] = system: NC(=O)C1=CN([C@@H]2O[C@H](COP(=O)(O)OP(=O)(O)OC[C@H]3O[C@@H](n4cnc5c(N)ncnc54)[C@H](O)[C@@H]3O)[C@@H](O)[C@H]2O)C=CC1; test: CB1954 nitroreductase activity, HPLC, purified His-tagged HsoNTR; type: biochemical, Haemophilus somnus 129PT; details: other: 37° C., pH 7.0
Excerpt: (§1) Genes encoding homologs of E. coli NfnB and Bacillus amyloliquefaciens YwrO from several bacteria were cloned into an E. coli expression vector for screening (see Methods below). These were the NfnB homolog from Neisseria meningitidis MC58 (‘NmeNTR’, accession number Q9K022), the NfnB homolog from Haemophilus somnus 129PT (‘HsoNTR’, accession number ZP_00122352.1), the NfnB homolog from Burkholderia fungorum LB400 (‘BfuNTR’, accession number ZP_00029570.1), the YwrO homolog from Vibrio cholerae (‘VchYwrO’, accession number Q9KNX3), the YwrO homolog from Rhodobacter sphaeroides (‘RspYwrO’, accession number ZP_00007082.1), and two YwrO homologs from Pseudomonas aeruginosa (‘PaeYwrO1’, accession number Q9HUJ0; and ‘PaeYwrO2’, accession number Q9I4B3).
(§2) For determination of CB1954 nitroreductase kinetic parameters, six-histidine affinity-tagged enzymes were purified from cell lysates purified using a Novagen His-Bind kit in accordance with the manufacturer's instructions.
(§3) CB1954 nitroreductase activity was determined essentially as described by Anlezark (6). Reaction mixtures containing 500 μM NADH or NADPH and a small quantity of enzyme (either crude lysate or purified enzyme) were assembled in pre-warmed (to 37° C.) 100 mM sodium phosphate buffer (pH 7.0), and started with the addition of 100 μM CB1954 and prompt mixing.
(§4) To determine initial reaction rates during preliminary screening of CB1954 nitroreductase candidates, aliquots of the reaction mixtures taken at various times were injected into a Partisphere SCX (100×4.7 mm) HPLC column and eluted isocratically at 2 ml/min with 130 mM NaH2PO4 (pH 5.0). Eluates were continuously monitored at 260 nm and 325 nm, and the absorbance spectra of eluting components recorded using a photodiode array detector. Peaks were identified with reference to standards and/or by their known absorbance spectra (7) and anticipated column retention times as appropriate. Rates were determined based on the decrease in the area under the CB1954 peak over time, normalised to the known starting concentration of 100 μM using the peak from the zero timepoint sample.
(§5) To determine initial reaction rates and CB1954 nitroreduction products in later experiments with purified proteins, peaks were identified as before, and rates were determined based on the increase in the area under the 4-hydroxylamine derivative peak over time, normalised using enzymatically-synthesised 4-hydroxylamine standards.
(§6) NmeNTR and HsoNTR were each affinity-tagged, over-expressed, purified, and the CB1954 nitroreductase activities of the purified proteins characterized using the HPLC assay. The reaction products and kinetic parameters of these enzymes with respect to CB1954 and NADH were determined (Table 1). […]

[2] = system: NC(=O)c1cc(N2CC2)c([N+](=O)[O-])cc1[N+](=O)[O-]; test: as above; type: biochemical, Haemophilus somnus 129PT; details: pH 7.0; for kcat: 37° C.
Excerpt: as §1, §2, §3, §4, §5, §6

[3] = system: E. coli NfnB nitroreductase, wild type; details: Knox et al., 1992; read-out: Km^NADH; cited from earlier work
[4] = system: E. coli NfnB variant N71S/F124K; details: Searle et al., 2004 and Race et al., 2007; read-out: Km^NADH; cited from earlier work
[5] = system: BliNTR, NTR from Bacillus licheniformis; details: Emptage et al., 2009; read-out: Km^NADH; cited from earlier work
[6] = system: NC(=O)C1=CN([C@@H]2O[C@H](COP(=O)(O)OP(=O)(O)OC[C@H]3O[C@@H](n4cnc5c(N)ncnc54)[C@H](O)[C@@H]3O)[C@@H](O)[C@H]2O)C=CC1; test: CB1954 nitroreductase activity, HPLC, purified His-tagged NmeNTR; type: biochemical, Neisseria meningitidis MC58; details: other: 37° C., pH 7.0
Excerpt: as §1, §2, §3, §4, §5
(§7) NmeNTR and HsoNTR were each affinity-tagged, over-expressed, purified, and the CB1954 nitroreductase activities of the purified proteins characterized using the HPLC assay. The reaction products and kinetic parameters of these enzymes with respect to CB1954 and NADH were determined (Table 1). […] Moreover, the kinetic parameters of HsoNTR and NmeNTR differ dramatically from those of E. coli NfnB and other published enzymes (Table 1). […] NmeNTR would therefore approach saturation with CB1954 in a therapeutic regime using the maximum clinically-recommended dose, so the prodrug would be efficiently activated and high levels of tumour-specific cytotoxicity achieved.

[7] = system: NC(=O)c1cc(N2CC2)c([N+](=O)[O-])cc1[N+](=O)[O-]; test: as above; type: biochemical, Neisseria meningitidis MC58; details: pH 7.0
Excerpt: as §1, §2, §3, §4, §5, §7

[8] = CB1954 nitroreductase activity of purified His-tagged proteins (HPLC assay); type: biochemical
Protocol: as §2, §3, §5, §7

[9] = Specific menadione reductase activity in lysates of E. coli cells (screen for functional expression); type: biochemical; details: E. coli lysates containing expression plasmid
Protocol: In an initial screen for functional expression of each of the cloned genes, specific menadione reductase activity was determined in lysates of E. coli cells containing the NfnB or YwrO homolog expression plasmid. Enzymes from these families are expected to be NAD(P)H-dependent quinone reductases regardless of their nitroreductase activity against CB1954, and a photospectrometric menadione reductase assay is available (see Methods below), so this approach provides a convenient means to assess functional expression.
(§8) Lysates of E. coli clones containing pMTL1015-based enzyme expression plasmids were prepared for preliminary characterisation of enzyme activities. […]
Menadione reductase activity was determined by the method of Knox (5). […] Reduction of cytochrome C was recorded by measuring increase in absorbance at 550 nm. Specific activities were calculated using the total protein concentrations of cell lysates, which were determined using the Bradford reagent (Sigma-Aldrich). Aliquots of cell lysates were mixed with 250 μl of Bradford reagent and incubated in the dark at room temperature for 5 min before absorbance was measured at 595 nm. Absorbance values were compared to those obtained using known concentrations of bovine serum albumin.

[10] = Screen for CB1954 nitroreductase activity in E. coli lysates (HPLC); type: biochemical; details: 100 μM CB1954
Protocol: To screen for CB1954 nitroreductase activity of each of the functionally expressed genes, lysates of E. coli cells containing the NfnB or YwrO homolog expression plasmid were added to reaction mixtures containing CB1954 and the concentration of CB1954 was monitored by HPLC (see Methods below). […] Such activity was not observed in the lysates containing VchYwrO, PaeYwrO1 or PaeYwrO2.
as §8, §3
To determine initial reaction rates during preliminary screening of CB1954 nitroreductase candidates, aliquots of the reaction mixtures taken at various times were injected into a Partisphere SCX (100×4.7 mm) HPLC column and eluted isocratically at 2 ml/min with 130 mM NaH2PO4 (pH 5.0). Eluates were continuously monitored at 260 nm and 325 nm, and the absorbance spectra of eluting components recorded using a photodiode array detector. […]

[11] = other: CB1954, cofactor NADPH, 37° C.

HsoNTR, Haemophilus somnus 129PT nitroreductase (NfnB homolog, ZP_00122352.1), wild type, SEQ ID NO: 2 (Histophilus somni)
Km [1]: 644 µM | Km ([2]; other: 37° C.): 22.03 µM | kcat ([2]; other: CB1954, cofactor NADH): 3.5 (NADH) S^−1 | kcat ([2]; other: CB1954, cofactor NADPH): 13.13 (NADPH) S^−1

NC(=O)C1=CN([C@@H]2O[C@H](COP(=O)(O)OP(=O)(O)OC[C@H]3O[C@@H](n4cnc5c(N)ncnc54)[C@H](O)[C@@H]3O)[C@@H](O)[C@H]2O)C=CC1 [NADH]
Km [3]: 6 µM | Km [4]: 5 µM | Km [5]: 820 µM

NmeNTR, Neisseria meningitidis MC58 nitroreductase (NfnB homolog, Q9K022), wild type, SEQ ID NO: 1 (Neisseria meningitidis MC58)
Km [6]: 188 µM | Km ([7]; other: 37° C.): 2.47 µM | kcat ([7]; other: 37° C.): 4.04 (NADH) | kcat/Km ([7]; other: 37° C.): 1.636 (NADH) | kcat [7, 11]: 15.23 (NADPH) | kcat/Km [7, 11]: 6.166 (NADPH)

B1: HsoNTR: NfnB homolog nitroreductase from Haemophilus somnus 129PT, accession ZP_00122352.1, SEQ ID NO: 2 (protein, listed as Haemophilus somnus)
chain: MTTISKEHVLDSFNRRASTRYYDPNKKISNEDFSYVLEFARLSPSSVGSEPWHFLVIQNPELRAKLKPVSWGMATQIDDASHLVVILAKKNARYDSEFLVQSMKRRGLSGEQIQATKEKYHLFQAEHMKTLENDRTLFDWASKQTYIALANMLTGAALIGIDSCPIEGFNYEKVNQILTDAGVLDSDEWGVSVMATFGYRAKEIKPKSRKSLDEIVTWVK
Kcat/K^CB1954 ([8]; NADH): 0.159 (NADH) s^−1μM^−1 | Kcat/K^CB1954 ([8]; NADPH): 0.596 (NADPH) s^−1μM^−1 | specific menadione reductase activity of lysates versus control [9]: significantly elevated above the control | CB1954 nitroreductase activity (decrease in CB1954 concentration) [10]: caused a decrease in CB1954 concentration; also recorded: rapidly consumed

B2: NmeNTR: NfnB homolog nitroreductase from Neisseria meningitidis MC58, accession Q9K022, SEQ ID NO: 1 (protein, listed as Neisseria meningitidis)
chain: MTVLSKEQVLSAFKNRKSCRHYDAARKISAEDFQFILELGRLSPSSVGSEPWQFIVVQNPEIRQAIKPFSWGMADALDTASHLVVFLAKKNARSDSPFMLESLKRRGVTEPDAVAKSLARYQAFQADDIKILDDSRALFDWCCRQTYIALANMMTGAAMAGIDSCPVEGFNYAEMERILSGQFGLFDAAEWGVSVAATFGYRVQEIATKARRPLEETVIWA
Km [8]: < 6.3 µM | Km^CB1954 relative to the lowest previously reported (NfsA) [8]: seven-fold lower | Kcat/K^CB1954 ([8]; NADH): 1.636 (NADH) s^−1μM^−1 | Kcat/K^CB1954 ([8]; NADPH): 6.166 (NADPH) s^−1μM^−1 | specific menadione reductase activity of lysates versus control [9]: significantly elevated above the control | CB1954 nitroreductase activity (decrease in CB1954 concentration) [10]: caused a decrease in CB1954 concentration; also recorded: rapidly consumed
